Reference: publication PMC11898728

Biological target: RhoA (human) (UniProt P61586)
Sequence of UniProt P61586 (P61586 whole entry): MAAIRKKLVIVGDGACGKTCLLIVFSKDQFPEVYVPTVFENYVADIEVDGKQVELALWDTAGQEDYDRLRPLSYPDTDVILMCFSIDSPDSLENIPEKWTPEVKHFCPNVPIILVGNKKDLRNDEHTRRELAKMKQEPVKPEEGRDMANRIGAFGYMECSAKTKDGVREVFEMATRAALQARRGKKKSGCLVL

VopX (amino acids 26-252), purified (domain or fragment)
average exchange rate of RhoA in the presence of VopX (in vitro RhoGEF exchange assay with N-MAR-GTP; 1.5 µM GTPase, 0.75 µM N-MAR-GTP, 0.5 µM VopX) (µmol N-MAR-GTP/μmol GTPase/s): 167
